Results: patent US20200325224A1 (Hoffmann-La Roche, published 2020)

Tests used:
[1] = target: T1, human CD3e amino acids 1-22 peptide (1:1 mixture of N- and C-terminally biotinylated variants) (human, biotin attached via linker to the N- or the C-terminus (1:1 mixture)); assay: ELISA, biotinylated target on streptavidin plate
T1 construct: Linker not described; also called huCD3e- 1-22 peptide
Protocol: (§1) Binding of anti-CD3 antibodies to human and cynomolgus CD3 proteins and peptides was determined by ELISA. Biotinylated target proteins and peptides were immobilized on a 384-well streptavidin-coated microplate (MaxiSorb; MicroCoat, DE, Cat. No. 11974998/MC1099) in 25 μl/well, in DPBS (PAN Biotech GmbH, DE, Cat. No. P0436500) by incubation over night at 4° C. […] Peptides used were produced with biotin attached via linkers either to the N- or the C-terminus of the peptide. For target binding ELISA N- and C-terminal biotinylated peptides were mixed in a 1:1 ratio for immobilization on microplates (Table 8) and used separately (Table 8). […] Antibodies were detected with peroxidase-linked, species-specific anti-rabbit IgG, (F(ab′)₂ fragment, from donkey, GE, Cat. No. NA 9340) diluted 1:5000 in 1×PBS (w/0.5% BSA, w/0.05% Tween 20) for 1 h at room temperature. Detection antibodies were removed by four washing steps with washing buffer and signal was developed by addition of TMB substrate (TMB solution, Roche). Absorbance was read out after fixed time intervals at […].

[2] = target: T2, cynomolgus CD3e amino acids 1-22 peptide (1:1 mixture of N- and C-terminally biotinylated variants) (cynomolgus, biotin attached via linker to the N- or the C-terminus (1:1 mixture)); assay: ELISA, biotinylated target on streptavidin plate
T2 construct: Linker not described; also called cyCD3e- 1-22 peptide; cynomolgus CD3 peptide-1-22
T2 peptide: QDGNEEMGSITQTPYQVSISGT
Protocol: as §1

[3] = target: T3, human CD3e-1-26-Fc(knob)-Avi/Fc(hole) (human, UniProt P0DOX5 223-449 = IgG part); assay: ELISA, biotinylated target on streptavidin plate
T3 construct: First 26 amino acids of mature CD3e fused to Fc(knob), co-expressed with Fc(hole); biotinylated for the ELISA; also called huCD3e-1-26 huFc
Protocol: as §1

[4] = target: T4, cynomolgus CD3e 5-26-Fc(knob)-Avi/Fc(hole) (cynomolgus, UniProt P0DOX5 223-449 = IgG part); assay: ELISA, biotinylated target on streptavidin plate
T4 construct: Residues 5-26 of mature CD3e fused to Fc(knob), co-expressed with Fc(hole); biotinylated for the ELISA; also called cyCD3e 5-26 huFc
Protocol: as §1

[5] = target: T5, human CD3e 5-26-Fc(knob)-Avi/Fc(hole) (human, UniProt P0DOX5 223-449 = IgG part); assay: ELISA, biotinylated target on streptavidin plate
T5 construct: Residues 5-26 of mature CD3e fused to Fc(knob), co-expressed with Fc(hole); biotinylated for the ELISA; also called huCD3e 5-26- huFc
Protocol: as §1

[6] = target: T6, cynomolgus CD3e stalk-Fc(knob)-Avi/CD3d-stalk-Fc(hole) (cynomolgus); assay: SPR (BIACORE T100), antibody captured by anti-rabbit IgG Fc, antigen in solution, 25 C, 1:1 Langmuir
T6 construct: Heterodimer; biotinylated for the ELISA; used in solution in SPR; also called cyCD3ed stalk huFc; cynomolgusCD3e(stalk)Fc-Knob-CD3d(stalk)FcHole
T6 sequence (chain, as listed by the source limits assumed): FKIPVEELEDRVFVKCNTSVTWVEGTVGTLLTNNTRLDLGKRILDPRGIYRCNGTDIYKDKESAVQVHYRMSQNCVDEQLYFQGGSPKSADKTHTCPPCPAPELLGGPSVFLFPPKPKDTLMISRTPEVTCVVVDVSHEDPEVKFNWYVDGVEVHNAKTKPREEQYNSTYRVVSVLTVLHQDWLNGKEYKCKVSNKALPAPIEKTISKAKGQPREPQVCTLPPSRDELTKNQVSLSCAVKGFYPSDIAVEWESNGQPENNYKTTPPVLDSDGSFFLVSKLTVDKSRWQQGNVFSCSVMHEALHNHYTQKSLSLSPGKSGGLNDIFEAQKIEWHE
Protocol: Around 2000 resonance units (RU) of the capturing system (10 μg/ml goat anti rabbit IgG Fc Fragment specific; Order Code: 111-005-046; Jackson Immuno Research) were coupled on a CM4 chip (GE Healthcare, BR-1005-34) at pH 5.0 by using an amine coupling kit supplied by the GE Healthcare. Running buffer for Immobilization was HBS-N pH 7.4 (10 mM HEPES, 150 mM NaCl, pH 7.4, GE Healthcare, BR-1006-70). For the followed kinetic assay running and dilution buffer was HBS-P pH 7.4 (10 mM HEPES, 150 mM NaCl, 0.05% Surfactant P20, pH 7.4, GE Healthcare, BR-1006-71). The flow cell was set to 25° C.—and the sample block set to 12° C.—and primed with running buffer twice. […] Association was measured by injection of human CD3e(stalk)Fc-Knob-CD3d(stalk)FcHole or cynomolgus CD3e(stalk)Fc-Knob-CD3d(stalk)FcHole in various concentrations in solution for 180 sec at a flow of 30 μl/min starting with 1350 nM, followed by one 1:1.5 dilution and further in 1:3 dilutions. The dissociation phase was monitored for up to 300 sec and triggered by switching from the sample solution to running buffer. The surface was regenerated by washing with two consecutive injections of a Glycine pH 1.7 solution for 60 sec at a flow rate of 10 μl/min. Bulk refractive index differences were corrected by subtracting the response obtained from a goat anti rabbit IgG Fc surface. Blank injections are also subtracted (=double referencing). For calculation of KD and other kinetic parameters the Langmuir 1:1 model was used.

T1 sequence (peptide, as listed by the source mutant): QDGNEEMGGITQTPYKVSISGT

B1: antibody clone 645 (antibody, V domains shown)
VH: QSLEESGGDLVKPGASLTLTCLASGFSFSGTYWICWVRQAPGKGLEWIGCISTDSGSTYYASWAKGRFTISKTSSTTVTLQMTSLTAADTATNFCARSAYASEGYALWGPGTLVTVSS
VL: AIVMTQTPSSKSVPVGDTVTINCQASESVYNNNYLSWYQQKPGQPPKLLIYYASTLASGVSSRFKGSGSGTQFTLTISDVVCDDAATYYCTGWKSITTDGMGAFGGGTEVVVKG
notes: Rabbit monoclonal; Recombinantly expressed with rabbit gamma and kappa constant regions in HEK293 (captured by anti-rabbit IgG Fc in SPR); also called Mab.645
Q: What does the source list for B1?
A: binding result [1]: no binding; binding result [2]: no binding; binding result [3]: no binding; binding result [4]: no binding; binding result [5]: no binding; Kd [6]: 620 nM; koff [6]: 0.013 s⁻¹; kon [6]: 21000 M⁻¹ s⁻¹
